Our source for the apparent half-life of MBP-OsPUB2 in mock-treated rice cell-free extract when mixed with (His)6-OsPUB3 (150 min without it); cell-free degradation assay, 0-6 h and apparent half-life of MBP-OsPUB3 in mock-treated rice cell-free extract when mixed with (His)6-OsPUB2 (140 min without it); cell-free degradation assay, 0-6 h values is paper PMC5247461.

The target of this assay is OsPUB2 recombinant protein, bacterially expressed ((His)6-OsPUB2 and MBP-OsPUB2) (rice (Oryza sativa L.)).

For the substance “OsPUB3 recombinant protein, bacterially expressed ((His)6-OsPUB3 and MBP-OsPUB3) (natural protein)”, the apparent half-life of MBP-OsPUB2 in mock-treated rice cell-free extract when mixed with (His)6-OsPUB3 (150 min without it); cell-free degradation assay, 0-6 h at 30°C came out at 4.17 h and the apparent half-life of MBP-OsPUB3 in mock-treated rice cell-free extract when mixed with (His)6-OsPUB2 (140 min without it); cell-free degradation assay, 0-6 h at 30°C is 5.83 h.
